Experimental data from US20260201069A1, “ANTIBODIES THAT SPECIFICALLY BIND MODIFIED OLIGONUCLEOTIDES” (Hoffmann-La Roche Inc., priority 2024, published 2026).

Experiments:
Assay in all cases: Epitope mapping solid phase immunoassay (ELISA)
Assay type in all cases: binding
Settings in all cases: signal-to-noise (S/N) class
GalNAc-C6-modification = test system: GalNAc-C6-modification
Text: (§1) The epitope was mapped using immunoassays with capture molecules containing the following binding epitopes as well as combinations thereof: • LNA (2′-0,4-C-methylene), • phosphorothioate in the NA backbone, • nucleotides/sequence of bases, • DNA, • GalNAc-C6-modification.
(§2) The results of the epitope characterization of the antibodies according to the current invention by solid phase immunoassay (ELISA) using different biotinylated LNA, PS-backbone or DNA-containing NA-oligonucleotides as outlined above are shown in FIGS. 1 to 5.
(§3) The selected monoclonal LNA-specific Abs were further characterized for binding characteristics and epitope mapped by immunoassay using capture molecules containing the following binding epitopes and combinations thereof • LNA (2′-O.4-C-methylene) • phosphorothioate in the NA backbone • nucleotides/sequence of bases • DNA • GalNAc-C6-modification
(§4) The results of the antibody characterization by solid phase immunoassay (ELISA) using different biotinylated LNA, PS-backbone or DNA-containing NA-oligonucleotides are shown in FIGS. 1 to 5.

[1] = test system: Phosphorothioate Backbone
Text: as §1, §2, §3, §4

DNA = test system: DNA
Text: as §1, §2, §3, §4

[2] = test system: LNA sequence (nucleotides/sequence of bases)
Text: as §1, §2, §3, §4

LNA (2′-O,4-C-methylene) = test system: LNA (2′-O,4-C-methylene)
Text: as §1, §2, §3, §4

| Molecule | Reactivity to GalNAc-C6-modification (GalNAc-C6-modification) | Reactivity to Phosphorothioate Backbone [1] | Reactivity to DNA (DNA) | Impact of LNA sequence [2] | Reactivity to LNA (2′-O,4-C-methylene) (LNA (2′-O,4-C-methylene)) |
| --- | --- | --- | --- | --- | --- |
| clone 1.7.15: anti-LNA monoclonal hybridoma antibody, VH SEQ ID NO: 12, VL SEQ ID NO: 21 (antibody, listed as Mus musculus, V domains shown) VH: QVQLKQSGPSFVQPSQSLSITCTVSGFSLTTYGVHWVRQSPGKGLEWLGVIWRSGGTDYNAAFMSRLSITKDNSKSQVFFKMNSLQTDDTAIYYCTNLYYWGQGTTLTVSS VL: DIVMTQATFSNPVTLGTSVSISCRSSKSLLRSNGITYLYWYLQKPGQSPQLLIYQMSNLASGVPDRFSSSGSGTDFTLRISRVEAEDVGVYYCGQNLELPYTFGSGTKVEIK | − (−: S/N <2) | +++ (+++: S/N ≥10) | − (−: S/N <2) | +++ (+++: S/N ≥10) | − (−: S/N <2) |
| clone 1.5.13: anti-LNA monoclonal hybridoma antibody, VH SEQ ID NO: 81, VL SEQ ID NO: 89 (antibody, listed as Mus musculus, V domains shown) VH: QVQLKESGPGLVAPSQSLSITCTISGFSLTTYGVHWVRQPPGMGLEWLVVIWGDGSTTYNSALRSRLSISKDNSRSQVFLKMNSLQTDDTAMYYCARHGGRYALDYWGQGTSVTVSS VL: DIVMTQSPATLSVTPGDRVSLSCRASQSIGGYLHWYQQKSHESPRLLIKYASQSMSGIPPRFSGSGSGSDFTLSINSVAPEDVGVYYCQAGHTFPLTFGAGTKL | − (−: S/N <2) | +++ (+++: S/N ≥10) | − (−: S/N <2) | −/+ (−/+: S/N: 2 to 3) | − (−: S/N <2) |
| clone 1.2.8: anti-LNA monoclonal hybridoma antibody, VH SEQ ID NO: 30, VL SEQ ID NO: 39 (antibody, listed as Mus musculus, V domains shown) VH: QIQLRESGPGLVAPSQSLSITCTVSGFSLTNYGVHWVRQPPGKGLEWLGVIWAGGSTIYNSALMSRLSISRDNSKSQVFLEMNSLQTYDTAMYYCARDRPFDGFFFSYWGQGTALTVSS VL: DVLMTQTPLSLPVSLGDQASISCRSSQAIVHRSGNTFLEWYLQKPGQSPKLLIYKVSNRFSGVPDRFSGSGSGTDFTLKINRVEAEDLGVYYCFQGSHVPYTFGSGTKLEIK | − (−: S/N <2) | +++ (+++: S/N ≥10) | − (−: S/N <2) | − (−: S/N <2) | − (−: S/N <2) |
| clone 1.4.10: anti-LNA monoclonal hybridoma antibody, VH SEQ ID NO: 65, VL SEQ ID NO: 73 (antibody, listed as Mus musculus, V domains shown) VH: QIQLRESGPGLVAPSQSLSITCTVSGFSLVNYGIHWVRQPPGKGLEWLGVIWAGGSTIYNSALMSRLSISRDNSKNQVFLEMNSLQTYDTAMYYCARDRPFDGFFFSYWGQGTALTVSS VL: DVLMTQTPLSLPVSLGDQASISCRSSQAIVHRSGNTFLEWYLQKPGQSPKLLIYKVSNRFSGVPDRFSGSGSGTDFTLKINRVEAEDLGVYYCFQGSHVPYTFGSGTKLEIK | − (−: S/N <2) | +++ (+++: S/N ≥10) | − (−: S/N <2) | + (+: S/N: 3 to 5) | − (−: S/N <2) |
| clone 1.9.21: anti-LNA monoclonal hybridoma antibody, VH SEQ ID NO: 48, VL SEQ ID NO: 57 (antibody, listed as Mus musculus, V domains shown) VH: QVQLQQSGAELVRPGTSVKVSCKASGYAFTNYLIEWIKQRPGQGLEWIGVINPGSGGTNYNEKFRVKATLTADKSSSTAYMQLSSLTSDDSAVYFCARGGGYYWGQGTLVTVSA VL: DIVMTQAAPSVPVTPGESVSISCRSSKSLLHSNGNTYLFWFLQRPGQSPQVLIYRMSNLASGVPDRFSGSGSGTAFTLRISRVEAEDVGVYYCMQHLEYPYTFGSGTRLEIK | − (−: S/N <2) | +++ (+++: S/N ≥10) | − (−: S/N <2) | +++ (+++: S/N ≥10) | ++ (++: S/N: 5 to 10) |
